Reference: article PMC3975505

Target: lnkH2B-H2A.Z (linked H2B-H2A.Z, single polypeptide chain) (human) (UniProt Q16778)
Assay: AUC

stoichiometry N: 1
Binder: EEEEEEEEEDEDEDEDEDEAGSELGEGEEEVGLSYLMKEEIQDEEDD (domain or fragment) [Anp32e_(186-232)]
